Results reported in paper PMC2762092 (The Journal of Cell Biology, 2009).

Key:
Assay in all cases: pull-down
[1] = target: T1, 6xHis-tagged SPN-2 (full-length) (C. elegans, UniProt Q20898 1-761)
T1 sequence: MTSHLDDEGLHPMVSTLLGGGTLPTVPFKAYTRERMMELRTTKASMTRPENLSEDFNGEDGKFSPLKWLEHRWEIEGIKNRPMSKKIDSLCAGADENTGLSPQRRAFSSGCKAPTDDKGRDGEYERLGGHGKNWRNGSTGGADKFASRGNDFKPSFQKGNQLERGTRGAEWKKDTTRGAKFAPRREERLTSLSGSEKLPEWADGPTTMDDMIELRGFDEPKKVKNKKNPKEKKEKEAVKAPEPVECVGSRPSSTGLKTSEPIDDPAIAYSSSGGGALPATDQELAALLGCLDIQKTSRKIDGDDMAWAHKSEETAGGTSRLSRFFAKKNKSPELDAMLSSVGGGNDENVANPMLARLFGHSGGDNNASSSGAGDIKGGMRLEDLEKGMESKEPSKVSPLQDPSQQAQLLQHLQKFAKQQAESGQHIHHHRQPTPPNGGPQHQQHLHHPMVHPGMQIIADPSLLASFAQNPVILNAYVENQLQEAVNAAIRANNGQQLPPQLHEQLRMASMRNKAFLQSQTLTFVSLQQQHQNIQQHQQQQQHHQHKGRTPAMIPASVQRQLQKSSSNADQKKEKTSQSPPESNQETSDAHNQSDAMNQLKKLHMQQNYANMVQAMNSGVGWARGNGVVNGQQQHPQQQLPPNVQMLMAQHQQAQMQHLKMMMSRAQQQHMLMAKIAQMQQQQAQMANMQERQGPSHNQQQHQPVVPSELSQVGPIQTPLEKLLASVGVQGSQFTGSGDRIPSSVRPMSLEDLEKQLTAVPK

[2] = target: T2, 6xHis-tagged SPN-2N (SPN-2 N-terminal fragment, 1-399 aa) (C. elegans, UniProt Q20898 1-399)
T2 sequence: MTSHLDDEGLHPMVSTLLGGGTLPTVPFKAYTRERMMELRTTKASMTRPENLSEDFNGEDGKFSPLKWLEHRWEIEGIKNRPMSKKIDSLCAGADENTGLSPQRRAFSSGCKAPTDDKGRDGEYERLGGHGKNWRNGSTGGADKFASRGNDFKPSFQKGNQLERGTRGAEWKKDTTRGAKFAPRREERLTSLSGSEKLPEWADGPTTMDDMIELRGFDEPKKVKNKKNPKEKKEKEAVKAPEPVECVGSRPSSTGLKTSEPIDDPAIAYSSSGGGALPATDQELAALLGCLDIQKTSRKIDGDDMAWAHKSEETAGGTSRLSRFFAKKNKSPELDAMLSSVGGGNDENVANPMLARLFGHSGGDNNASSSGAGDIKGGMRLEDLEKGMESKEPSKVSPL

[3] = target: T1, 6xHis-tagged SPN-2 (full-length); remark: listed apart in the source

B1: GST–IFE-2 (natural protein)
chain: MSEEPVAAPGTISHPVYKLKRNWTWWYLNDERNKSWEERLKNVKTFSSVGEFWALHDSIKPPSGLNPPSDYNVFRDGIEPMWEVPQNQNGGRWLITIEKGRTPEIMDTIWTEILMAMIGEQFSDDIESLCGIVCNVRGKGSKISVWTTNSADDGANLRIGGVLKQVLNNASMIHQRPLYDVLRYEDHESCQKKTSSGVKAKHAIYAVEPREEKAPVPVSTETPATPAT
[1]
  binding result: binds
[2]
  binding result: binds

B2: GST–IFE-5 (natural protein)
chain: MTELTTPIYPLQRNWSWWFLNDDRNASWQDRLKKVYTFNTVPEFWAFYEAILPPSGLNDLCDYNVFRDDIQPKWEAPENWDGGRWLIIINKGKTPEVLDAVWLEILLALIGEQFGKDMESICGLVCNVRGQGSKISVWTKNCNDDDTNMRIGVVLKEKLMAAASKAHSKPLFDVIHYQTHRNCVKKTTSALKYKFSLKSIV
[1]
  binding result: binds
[2]
  binding result: binds

B3: GST–IFE-1 (natural protein)
chain: MTETEQTTAPIYPLKRNWTWWYLNDERNKSWEDRLKKVYTFNTVSEFWALYDAIRPPSGLNALCDYNVFRDDIQPMWEVPENSNGGRWLIVIDKGKTPEMVDAIWLEILMALVGEQFGKDMESICGLVCNVRGKGSKISVWTKDCNDDETNMRIGVVLKEKLMAASKDHSKPLFDVIRYEDHESCQKKTSSVVKAKLSLHSSDAPVAEKSAV
[3]
  Kd: 33 nM
